The values that follow come from the supplement of paper PMC5998384.

The test system of series [1] is HeLa Kyoto. Kind of series: melting temperature (median over replicates), in situ; higher = more thermally stable.
The subject of series [2] is HeLa Kyoto. Kind of series: solubility in G1/S (NP-40 vs SDS abundance) (log2 ratio); higher = more soluble. As to conditions: cell cycle stage: G1/S.
The subject of series [3] is HeLa Kyoto. In words: solubility change mitosis vs G1/S (difference of NP-40 vs SDS log2 ratios) (log2 ratio difference); higher = more soluble in mitosis.
Series [4] has as its system HeLa Kyoto. Kind of series: thermal stability score vs G1/S (z-score of summed log2 fold changes over temperatures); higher = more thermally stable than in G1/S.
The mark [5] stands for this setting: cell cycle stage: early G1 (4.5 h after nocodazole release).
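Throughout, for melting temperature (median over replicates), in situ: HeLa Kyoto cells synchronized by double thymidine or nocodazole block, proteins quantified by TMT10plex mass spectrometry, three independent biological replicates.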
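Throughout, for solubility change mitosis vs G1/S (difference of NP-40 vs SDS log2 ratios): synchronized HeLa Kyoto cells (double thymidine block for G1/S, nocodazole release for mitosis), protein amounts in NP-40 versus SDS lysates quantified by mass spectrometry, three biological replicates.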
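Throughout, for solubility in G1/S (NP-40 vs SDS abundance): HeLa Kyoto cells arrested at G1/S by double thymidine block, proteins quantified by TMT10plex mass spectrometry in mild NP-40 versus SDS extracts, three biological replicates.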
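Throughout, for thermal stability score vs G1/S (z-score of summed log2 fold changes over temperatures): synchronized HeLa Kyoto cells, proteins quantified by TMT10plex mass spectrometry, three biological replicates, mitosis taken 0.5 h after nocodazole release, G1/S directly after double thymidine block.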

As for “MPPKVTSELLRQLRQAMRNSEYVTEPIQAYIIPSGDAHQSEYIAPCDCRRAFVSGFDGSAGTAIITEEHAAMWTDGRYFLQAAKQMDSNWTLMKMGLKDTPTQEDWLVSVLPEGSRVGVDPLIIPTDYWKKMAKVLRSAGHHLIPVKENLVDKIWTDRPERPCKPLLTLGLDYTGISWKDKVADLRLKMAERNVMWFVVTALDEIAWLFNLRGSDVEHNPVFFSYAIIGLETIMLFIDGDRIDAPSVKEHLLLDLGLEAEYRIQVHPYKSILSELKALCADLSPREKVWVSDKASYAVSETIPKDHRCCMPYTPICIAKAVKNSAESEGMRRAHIKDAVALCELFNWLEKEVPKGGVTEISAADKAEEFRRQQADFVDLSFPTISSTGPNGAIIHYAPVPETNRTLSLDEVYLIDSGAQYKDGTTDVTRTMHFGTPTAYEKECFTYVLKGHIAVSAAVFPTGTKGHLLDSFARSALWDSGLDYLHGTGHGVGSFLNVHEGPCGISYKTFSDEPLEAGMIVTDEPGYYEDGAFGIRIENVVLVVPVKTKYNFNNRGSLTFEPLTLVPIQTKMIDVDSLTDKECDWLNNYHLTCRDVIGKELQKQGRQEALEWLIRETQPISKQH [XPNPEP1]”, the melting temperature in the series on HeLa Kyoto [1] (cell cycle stage: G1/S) was 53 °C; in the series on HeLa Kyoto [1] (cell cycle stage: mitosis) it was 51.9 °C. In addition, the “solubility in G1/S (log2)” value in the series on HeLa Kyoto [2] stood at 0.105. Moreover, the “solubility change mitosis (log2)” value with HeLa Kyoto [3] was -0.14. Further, the thermal stability score with HeLa Kyoto [4] (setting [5]) is -1; in the series with HeLa Kyoto [4] (cell cycle stage: mitosis) it was -3.97.
In the case of “MPPPQGDVTALFLGPPGLGKSALIAALCDKDVETLEAPEGRPDSGVPSLRAAGPGLFLGELSCPPAAPGPWAAEANVLVLVLPGPEGNGEPLAPALGEAALAALARGTPLLAVRNLRPGDSQTAAQARDQTAALLNSAGLGAADLFVLPANCGSSDGCEELERLRAALQSQAEALRRLLPPAQDGFEVLGAAELEAVREAFETGGLEAALSWVRSGLERLGSARLDLAVAGKADVGLVVDMLLGLDPGDPGAAPASVPTAPTPFPAPERPNVVLWTVPLGHTGTATTAAAASHPTHYDALILVTPGAPTEKDWAQVQALLLPDAPLVCVRTDGEGEDPECLGEGKMENPKGESLKNAGGGGLENALSKGREKCSAGSQKAGSGEGPGKAGSEGLQQVVGMKKSGGGDSERAAALSPEDETWEVLEEAPPPVFPLRPGGLPGLCEWLRRALPPAQAGALLLALPPASPSAARTKAAALRAGAWRPALLASLAAAAAPLPGLGWACDVALLRGQLAEWRRGLGLEPTALARRERALGLASGELAARAHFPGPVTRAEVEARLGAWAGEGTAGGAALGALSFLWPAGGAAATGGLGYRAAHGVLLQALDEMRADAEAVLAPPEPAQ [IRGQ]”, the melting temperature in the series on HeLa Kyoto [1] (cell cycle stage: G1/S) and with HeLa Kyoto [1] (cell cycle stage: mitosis) was 51.3 °C throughout. Also, in the series on HeLa Kyoto [2], the “solubility in G1/S (log2)” value amounted to 0.437. In the series with HeLa Kyoto [3], the “solubility change mitosis (log2)” value worked out at 0.141. The figures for the thermal stability score in the series on HeLa Kyoto [4] (setting [5]) and in the series on HeLa Kyoto [4] (cell cycle stage: mitosis) were -0.649 and 0.0432, respectively.
On to “MPPPSDIVKVAIEWPGANAQLLEIDQKRPLASIIKEVCDGWSLPNPEYYTLRYADGPQLYITEQTRSDIKNGTILQLAISPSRAARQLMERTQSSNMETRLDAMKELAKLSADVTFATEFINMDGIIVLTRLVESGTKLLSHYSEMLAFTLTAFLELMDHGIVSWDMVSITFIKQIAGYVSQPMVDVSILQRSLAILESMVLNSQSLYQKIAEEITVGQLISHLQVSNQEIQTYAIALINALFLKAPEDKRQDMANAFAQKHLRSIILNHVIRGNRPIKTEMAHQLYVLQVLTFNLLEERMMTKMDPNDQAQRDIIFELRRIAFDAESDPSNAPGSGTEKRKAMYTKDYKMLGFTNHINPAMDFTQTPPGMLALDNMLYLAKVHQDTYIRIVLENSSREDKHECPFGRSAIELTKMLCEILQVGELPNEGRNDYHPMFFTHDRAFEELFGICIQLLNKTWKEMRATAEDFNKVMQVVREQITRALPSKPNSLDQFKSKLRSLSYSEILRLRQSERMSQDDFQSPPIVELREKIQPEILELIKQQRLNRLCEGSSFRKIGNRRRQERFWYCRLALNHKVLHYGDLDDNPQGEVTFESLQEKIPVADIKAIVTGKDCPHMKEKSALKQNKEVLELAFSILYDPDETLNFIAPNKYEYCIWIDGLSALLGKDMSSELTKSDLDTLLSMEMKLRLLDLENIQIPEAPPPIPKEPSSYDFVYHYG [ELMO2]”, for which the melting temperature in the series with HeLa Kyoto [1] (cell cycle stage: G1/S) and in the series with HeLa Kyoto [1] (cell cycle stage: mitosis) was 49.5 °C each time. The “solubility in G1/S (log2)” value with HeLa Kyoto [2] stood at 0.00667. The “solubility change mitosis (log2)” value in the series on HeLa Kyoto [3] is -0.134. The thermal stability score with HeLa Kyoto [4] (setting [5]) came out at 0.0114; in the series with HeLa Kyoto [4] (cell cycle stage: mitosis), 0.0809.
Turning to “MPQTRSQAQATISFPKRKLSRALNKAKNSSDAKLEPTNVQTVTCSPRVKALPLSPRKRLGDDNLCNTPHLPPCSPPKQGKKENGPPHSHTLKGRRLVFDNQLTIKSPSKRELAKVHQNKILSSVRKSQEITTNSEQRCPLKKESACVRLFKQEGTCYQQAKLVLNTAVPDRLPAREREMDVIRNFLREHICGKKAGSLYLSGAPGTGKTACLSRILQDLKKELKGFKTIMLNCMSLRTAQAVFPAIAQEICQEEVSRPAGKDMMRKLEKHMTAEKGPMIVLVLDEMDQLDSKGQDVLYTLFEWPWLSNSHLVLIGIANTLDLTDRILPRLQAREKCKPQLLNFPPYTRNQIVTILQDRLNQVSRDQVLDNAAVQFCARKVSAVSGDVRKALDVCRRAIEIVESDVKSQTILKPLSECKSPSEPLIPKRVGLIHISQVISEVDGNRMTLSQEGAQDSFPLQQKILVCSLMLLIRQLKIKEVTLGKLYEAYSKVCRKQQVAAVDQSECLSLSGLLEARGILGLKRNKETRLTKVFFKIEEKEIEHALKDKALIGNILATGLP [CDC6]”, the melting temperature with HeLa Kyoto [1] (cell cycle stage: G1/S) worked out at 50.1 °C; in the series with HeLa Kyoto [1] (cell cycle stage: mitosis), 53.2 °C. For the same sequence, in the series with HeLa Kyoto [2], the “solubility in G1/S (log2)” value is -0.114. In addition, the “solubility change mitosis (log2)” value in the series with HeLa Kyoto [3] worked out at 0.351. Moreover, the thermal stability score worked out at 0.564 in the series with HeLa Kyoto [4] (setting [5]) and 0.496 with HeLa Kyoto [4] (cell cycle stage: mitosis).
